Test: Control: unseeded Aβ1–40 solution checked for fibrils by TEM or AFM
Assay type: physicochemical
Settings: unseeded 50 µM Aβ1–40 solution, 30 min incubation

Aβ1–40: 40-residue β-amyloid peptide, made by solid-phase synthesis; also literature fibrils of unspecified polymorph
fibril formation in unseeded solution: no fibrils were observed
